Biological target: Fc gamma receptor I (human) (UniProt P12314)
Assay: AlphaScreen or HTRF; AlphaLISA human FCGR binding kit (PerkinElmer), competition: donor and acceptor beads coated with unmodified IgG and FcγR-I; serial dilutions of SPGR-engineered IgG in 1X HiBlock buffer (1 mg/ml to 0.1 μg/ml); 25 °C, 90 min; signal at 615 nm

Sequence of UniProt P12314 (P12314 16-292): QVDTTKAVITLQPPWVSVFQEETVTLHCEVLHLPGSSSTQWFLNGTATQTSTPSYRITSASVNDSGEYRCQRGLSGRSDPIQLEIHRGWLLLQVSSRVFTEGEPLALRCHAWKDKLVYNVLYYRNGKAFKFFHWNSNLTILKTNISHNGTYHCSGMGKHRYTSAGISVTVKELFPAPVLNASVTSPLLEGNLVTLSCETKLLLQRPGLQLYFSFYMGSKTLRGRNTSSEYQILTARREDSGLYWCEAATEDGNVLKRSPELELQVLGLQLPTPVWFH

| Substance | signal reduction at 0.1 μg/ml [%] |
| --- | --- |
| SPGR-engineered human serum IgG, sample 1, (F)M3 glycans (terminating with mannose) (antibody) | 60 |
| SPGR-engineered human serum IgG, sample 9, bisecting glycans (after GnT-III and GalT) (antibody) | 60 |
| SPGR-engineered human serum IgG, sample 5, mono-antennary glycans terminating with GlcNAc (antibody) | 60 |
| SPGR-engineered human serum IgG, sample 2, bi-antennary (F)A2 glycans (terminating with GlcNAc) (antibody) | 60 |
| SPGR-engineered human serum IgG, sample 3, bi-antennary glycans with terminal galactose (antibody) | 60 |
| SPGR-engineered human serum IgG, sample 8, bisecting glycans terminating with GlcNAc (antibody) | 60 |
| SPGR-engineered human serum IgG, sample 6, mono-antennary glycans (after GnT-I and GalT) (antibody) | 60 |
| SPGR-engineered human serum IgG, sample 10, bisecting sialylated glycans (FA2BG2S2 route) (antibody) | 60 |
| SPGR-engineered human serum IgG, sample 7, mono-antennary glycans (after GnT-I, GalT and SialylT) (antibody) | 60 |
| SPGR-engineered human serum IgG, sample 4, bi-antennary sialylated glycans (antibody) | 60 |

Reference: PMC8990068
